“And” between values parts separate entries of the source, which are not always exact repeats. Identical values can stand only once. Like-named read-outs stand apart in the source and are kept apart here.
T1: SlmA (Escherichia coli, UniProt P0C093 1-198)
T1 sequence: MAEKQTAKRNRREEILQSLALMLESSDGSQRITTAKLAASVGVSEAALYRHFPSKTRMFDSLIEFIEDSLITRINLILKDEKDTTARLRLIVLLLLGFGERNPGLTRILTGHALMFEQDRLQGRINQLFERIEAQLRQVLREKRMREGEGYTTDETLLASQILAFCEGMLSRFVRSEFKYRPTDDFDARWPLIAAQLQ

T2: SlmA (synthetic lethal with a defective Min system) (E. coli), P0C093
T2 chain: T1 sequence

B1: randomized DNA 2 (dsDNA)
DNA 1: CCTCAGCTGAGG
DNA 2: CCTCAGCTGAGG
B2: randomized DNA 1 (dsDNA)
DNA 1: AGTCTATAGACT
DNA 2: AGTCTATAGACT
B3: FtsZ, full length (E. coli) (natural protein)
chain: MFEPMELTNDAVIKVIGVGGGGGNAVEHMVRERIEGVEFFAVNTDAQALRKTAVGQTIQIGSGITKGLGAGANPEVGRNAADEDRDALRAALEGADMVFIAAGMGGGTGTGAAPVVAEVAKDLGILTVAVVTKPFNFEGKKRMAFAEQGITELSKHVDSLITIPNDKLLKVLGRGISLLDAFGAANDVLKGAVQGIAELITRPGLMNVDFADVRTVMSEMGYAMMGSGVASGEDRAEEAAEMAISSPLLEDIDLSGARGVLVNITAGFDLRLDEFETVGNTIRAFASDNATVVIGTSLDPDMNDELRVTVVATGIGMDKRPEITLVTNKQVQQPVMDRYQQHGMAPLTQEQKPVAKVVNDNAPQTAKEPDYLDIPAFLRKQAD
B4: SlmA (synthetic lethal with a defective Min system) (natural protein)
chain: T1 sequence
B5: C-terminal truncated FtsZ, FtsZ(1–360), P0A9A6 1-360 (domain or fragment)
chain: MFEPMELTNDAVIKVIGVGGGGGNAVEHMVRERIEGVEFFAVNTDAQALRKTAVGQTIQIGSGITKGLGAGANPEVGRNAADEDRDALRAALEGADMVFIAAGMGGGTGTGAAPVVAEVAKDLGILTVAVVTKPFNFEGKKRMAFAEQGITELSKHVDSLITIPNDKLLKVLGRGISLLDAFGAANDVLKGAVQGIAELITRPGLMNVDFADVRTVMSEMGYAMMGSGVASGEDRAEEAAEMAISSPLLEDIDLSGARGVLVNITAGFDLRLDEFETVGNTIRAFASDNATVVIGTSLDPDMNDELRVTVVATGIGMDKRPEITLVTNKQVQQPVMDRYQQHGMAPLTQEQKPVAKVVND
B6: SBS position 3 G to A (symmetric double mutant) (dsDNA)
DNA 1: GTAAGTACTTAC
DNA 2: GTAAGTACTTAC

Tests used:
[1] = target: T1, SlmA; assay: fluorescence polarization
[2] = target: B4; assay: SAXS
[3] = target: the molecule itself; assay: SAXS
[4] = target: B3; assay: fluorescence polarisation
[5] = target: the molecule itself; assay: SEC
[6] = target: B3; assay: fluorescence polarisation; remark: listed apart in the source
[7] = target: T2, SlmA (synthetic lethal with a defective …); assay: fluorescence polarisation; settings: remark: other sources report otherwise

## B1
[1]
  binding result: no binding

## B2
[1]
  binding result: no binding

## B3
[2]
  stoichiometry N: 1 SlmA:FtsZ
[3]
  binding result: binds

## B4
[4]
  Kd: 142 nM and 130 nM and 205 nM
[5]
  stoichiometry N: 2
[6]
  Kd: 119 ± 11 nM

## B5
[7]
  Kd: 148 nM

## B6
[1]
  Kd: ~60 nM
